Measured values as given in the supplement of paper PMC10724198.
± gives the standard deviation of the averaged measurements.

Tested on: Saccharomyces cerevisiae
Test: protein stability index of tFT-peptide fusion (C-terminal peptide) (PSI (0-1 scale)); higher = more stable (slower turnover)
Details: genetic background: wild type; temperature: 30 C
Method: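 Multiplexed protein stability (MPS) profiling in S. cerevisiae. Random 12-aa peptides (tFT-X12 library) are fused to the C-terminus of a sfGFP-mCherry tandem fluorescent timer, after mCherry and a GGGS linker. Cells are FACS-sorted into 8 mCherry/sfGFP bins and deep-sequenced. The protein stability index (PSI) is the read-weighted bin average, scaled from 0 (unstable) to 1 (stable). Only peptides with >10 reads are reported; cells were grown at 30 °C in SC-His with glucose.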
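Further: PSI is a weighted mean of sequencing reads over stability bins, variants kept only with over 10 reads, mCherry proximal and sfGFP distal, peptide attached via GGGS linker.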

Sequence	protein stability index
GPLEGGDGRWVG	0.6852 ± 0.0015
PCPLPVPCCLRP	0.636 ± 0.016
ARQPMHYRITGC	0.644 ± 0.063
LPPPPLTLPPPP	0.694 ± 0.02
AWMSRTRSKNLR	0.717 ± 0.048
PASPCTPLPFSP	0.686 ± 0.04
DFEVGPMGGFRC	0.674 ± 0.057
GAVQGVALRGGS	0.744 ± 0.1
VGCSGVYIWGNL	0.707 ± 0.015
HPPTSPGGLRQP	0.686 ± 0.0069
TCPLSFFLSFLF	0.565 ± 0.037
PFSLPAFLLPTL	0.712 ± 0.053
VVVSGGGAGFWL	0.728 ± 0.019
NPTDIAINTGIS	0.742 ± 0.0081
PPPPTQPPARPP	0.68 ± 0.014
GGVGGRGREWRR	0.7 ± 0.028
LSPGCLFLLPFL	0.701 ± 0.066
PPPLPPPPPTRP	0.616 ± 0.063
RSTTDNADRILY	0.7299 ± 0.0022
PPLPLPPPLLPP	0.659 ± 0.059
LPPSSSPSYIFS	0.744 ± 0.047
VIPSCMVFSSTG	0.71 ± 0.049
LCPVLRSPFFLF	0.55128 ± 0.00052
ECCDSGLCWLTF	0.754 ± 0.034
IRPSVCQAPDMR	0.679 ± 0.042

Sequence	protein stability index
WAGQWCRGRAGG	0.728 ± 0.056
VFARKARGFDDV	0.7188 ± 0.0065
APPPPPPSPRVP	0.71 ± 0.047
GLKNECAIDGVL	0.623 ± 0.045
SSPCFGKLRHFL	0.686 ± 0.035
YKGGDEVKTKKK	0.656 ± 0.035
SSSPLLDPPLPH	0.68 ± 0.017
MYTCMSSNPLAC	0.66 ± 0.039
HDRRGLRRISAT	0.647 ± 0.0084
CESRSIVSFVLL	0.73 ± 0.11
GNFGFKVELGVR	0.686 ± 0.031
HIKAEKRKKKTS	0.608 ± 0.024
PHLTTPATPVLL	0.716 ± 0.023
CLCLGGIWIVGG	0.63 ± 0.027
KKEEEGNREEKL	0.689 ± 0.038
TLKGERHKKNKR	0.623 ± 0.035
GEVSSIVHIGPK	0.684 ± 0.03
MNPRLTNKNNSS	0.765 ± 0.058
KKKKRKIPKKKK	0.635 ± 0.11
EELTVLCGLLKT	0.64 ± 0.04
GVVVGCGYGLVG	0.665 ± 0.04
IALLQRTSSTPD	0.748 ± 0.028
QVKKKKQNDAKN	0.646 ± 0.074
GQIKIRAFPKSR	0.662 ± 0.052
GGSGVHRHRPFG	0.666 ± 0.055

Sequence	protein stability index
ALVAPAYYWGDV	0.745 ± 0.059
IEITERRQKKIQ	0.699 ± 0.088
KKKKKKQQKKRK	0.686 ± 0.039
SDTHYLAGELCT	0.596 ± 0.034
PLFASLHPSGPL	0.699 ± 0.032
SGIEHVLIVYDT	0.679 ± 0.11
SGSSLCSVGWLV	0.718 ± 0.044
LLQQILKDYAEI	0.686 ± 0.033
GVNDRLIKMSCA	0.667 ± 0.033
LLSLVYSPLSPL	0.664 ± 0.035
ILPFSGLAFFLP	0.677 ± 0.039
NSSPRFPTPDNP	0.6618 ± 0.00081
PPLGPRALPSPA	0.67 ± 0.038
GWFTMLTGAFAE	0.7249 ± 0.003
GVLGPSFLSVAV	0.584 ± 0.0082
PVSPPLPTPPPP	0.616 ± 0.056
AGVPCLSVPPLG	0.683 ± 0.031
FSLPSVPCATYR	0.678 ± 0.043
AWGVCRPGGRGG	0.681 ± 0.035
AGWGGIWGLWVL	0.715 ± 0.11
RKKGGNSKKGKN	0.774 ± 0.12
VGASRFRLSNCF	0.677 ± 0.02
KKEEKKKNKNDR	0.679 ± 0.027
EGGEWGSFGSAV	0.704 ± 0.0094
YRARRRPPPSPP	0.682 ± 0.045

Sequence	protein stability index
ARMRQNDKHDGS	0.662 ± 0.011
PLPPPPPPPLPP	0.737 ± 0.011
LCVAFWLGLPTT	0.598 ± 0.011
GKSGGTGAGEKR	0.661 ± 0.046
PSPPASTPLPPP	0.684 ± 0.024
VMVVKSSSNTNI	0.641 ± 0.0077
ARPFCPLYTPRG	0.686 ± 0.043
ACLIHWVVSGAR	0.677 ± 0.016
RTGSCSCQRKPE	0.663 ± 0.017
AVSLTLCISSIS	0.5869 ± 0.0052
KLVGASVYECQR	0.672 ± 0.012
PNHLDPPTLHVN	0.714 ± 0.021
ENKKKKKNIEKK	0.702 ± 0.04
FGFIEGKRLGIT	0.62 ± 0.041
WHDLDRGSFRAV	0.669 ± 0.023
LPHFHPPLDPPA	0.692 ± 0.0079
NKDKNDDRKLLG	0.723 ± 0.12
VCSYISGRKSVL	0.568 ± 0.0048
LHLGRLVHGGVD	0.673 ± 0.017
WGLGLYEENTGC	0.7468 ± 0.003
TCTGAKHRCHVL	0.677 ± 0.011
PTPLPHTRATPT	0.778 ± 0.015
SLSERPKFSIYV	0.656 ± 0.049
FFLPTLQLTPYL	0.795 ± 0.19
SSIGPTECSYFS	0.678 ± 0.088

Sequence	protein stability index
CWGLRVMGGTGR	0.702 ± 0.013
PVFTLLPTCYCA	0.6073 ± 0.0025
HISTQREEIDPA	0.6506 ± 0.00086
KRITLNADIIIK	0.629 ± 0.11
SPPRPPPVPPPP	0.617 ± 0.054
VPIRSGYLRPNF	0.573 ± 0.038
SIRLGGSVVELV	0.694 ± 0.041
GRNLFGLLWARP	0.721 ± 0.0094
SLLLPLFLPPSL	0.723 ± 0.0086
GGGGALGRVWPG	0.685 ± 0.02
YFFECFKECREQ	0.749 ± 0.015
GEVGRGGEWGLD	0.711 ± 0.077
APPAHPARSHTP	0.69 ± 0.019
IRIKLTYYKSYL	0.678 ± 0.13
VRGVCGVGFGVW	0.604 ± 0.046
RASQRGVRGGGG	0.666 ± 0.02
IMGLGLASAKRM	0.677 ± 0.073
VIGWACLCFGAI	0.555 ± 0.0063
RILPPPPPPSSR	0.754 ± 0.026
GVCLGCWCWWVG	0.604 ± 0.044
LRFRTVTRSGLR	0.626 ± 0.048
SLMRRFRGQWRV	0.71 ± 0.06
EKKKTKKKTIKK	0.636 ± 0.03
ATYPVPMPPTPQ	0.734 ± 0.037
GRVIVCLSWGRL	0.591 ± 0.019

Sequence	protein stability index
LWVPPRSGRFGG	0.681 ± 0.014
PTHGPSPPNVAT	0.6595 ± 0.00038
LSRMTNFKEKEG	0.669 ± 0.03
LEGGACFGVCEW	0.6956 ± 0.0048
PSRTSPLSHIPF	0.676 ± 0.023
THCWQVLPCGLI	0.723 ± 0.0089
LWVGGKRREVMG	0.706 ± 0.032
LLILGTPKQDSR	0.67 ± 0.036
HLSNPRPPPPTR	0.703 ± 0.016
AGGRGGGGGGDA	0.663 ± 0.0071
ARRYVPPRWGSL	0.679 ± 0.065
IACGAGGRGFSC	0.721 ± 0.025
FWPPLTNLCTLL	0.687 ± 0.011
DYCARQRLLDQF	0.685 ± 0.11
GCSFVLCRGSNA	0.675 ± 0.034
HTTPGPYVLPWP	0.807 ± 0.06
QHHDPYPHQRSP	0.686 ± 0.023
VSGLRRLVAFAR	0.518 ± 0.0061
VTLGLSMVQWTY	0.5702 ± 0.0025
FCVFVGSSLVGF	0.659 ± 0.019
PRPLTRPVPPLS	0.68 ± 0.13
CGLASHLCSGRG	0.66 ± 0.081
KMVTRKKNEEKD	0.6328 ± 0.0029
EFSILLPLPFFR	0.656 ± 0.076
GAKQSSKRPRAS	0.719 ± 0.028

Sequence	protein stability index
PTRGLTARPFLW	0.62 ± 0.042
IYFRILKKRSKT	0.639 ± 0.02
KQKIKTDKYKKD	0.656 ± 0.051
RRRGEGRREKDR	0.677 ± 0.12
PPHLPPSLSVLP	0.663 ± 0.057
GKAIIIFEQLRR	0.749 ± 0.12
ARLSLEGASRGE	0.653 ± 0.023
TWPGRAGGRGAT	0.721 ± 0.1
PPPPSLPPPSRP	0.7125 ± 0.0063
SDSAPPPAALPH	0.7263 ± 0.0029
EAIQDCERGPCW	0.698 ± 0.0081
QEEKLSKNSKKK	0.691 ± 0.036
FFVFFPLGGFWL	0.668 ± 0.085
TVMSDCQTDQAS	0.657 ± 0.065
PPLPPLLFRSPP	0.687 ± 0.017
GGGFVGGTVAAV	0.725 ± 0.011
CIGVRFVNAHEG	0.771 ± 0.1
GGVSRLVGRLGG	0.7055 ± 0.0017
SCKARPLVAASD	0.66 ± 0.044
SIDGFAFCVGGV	0.737 ± 0.058
HPFGHSFLTAPF	0.793 ± 0.16
SLLSSPFPCLRQ	0.766 ± 0.087
ARSDSPRATQAN	0.697 ± 0.06
KPRKEKRGLVNS	0.664 ± 0.039
MGGMGRGGRREI	0.692 ± 0.022

Sequence	protein stability index
NRGPPNMRQITP	0.712 ± 0.085
PPPNPPATTTTP	0.6685 ± 0.0012
AIACYLGLTSYP	0.647 ± 0.021
CGLRRFTGLAWS	0.6372 ± 0.00093
ESGPQWLGTFVT	0.733 ± 0.0094
SCLYPGLCLSYF	0.674 ± 0.0069
VRDGPRCPVACP	0.621 ± 0.02
ESQGYGSQAKLA	0.694 ± 0.028
GYARESERFGIH	0.694 ± 0.011
NKDEVHRRRGRI	0.718 ± 0.017
VVEYCEGKAVYF	0.695 ± 0.025
AQPLARTALPRR	0.775 ± 0.019
DRYSVGCGVSEG	0.7038 ± 0.002
KSPSTRATTHTY	0.678 ± 0.028
GRSGSVGGIRGR	0.727 ± 0.04
NFFGPAIFLRRR	0.678 ± 0.022
STLTPLPLRASA	0.5333 ± 0.005
PPRLVPPLPPPL	0.635 ± 0.048
GCIGGMAPWGGL	0.664 ± 0.0097
CKQIESRLLEGQ	0.64 ± 0.024
KQRTRKYLNSRN	0.654 ± 0.12
